Experimental data taken from publication PMC7835349 (Communications Biology, 2021).
Values joined by “and” are separate entries in the source; they are usually repeats but may differ in a detail not shown here. Equal values may be shown once.

Legend:
[1] = test system: luciferase-tagged Ri-1 tumour cells; assay: Disseminated luciferase-tagged Ri-1 DLBCL model (bioluminescence); assay type: in vivo, C.B-17 SCID mouse
Procedure: Ten million luciferase-tagged Ri-1 tumour cells were injected intravenously in the tail vein of C.B.−17 SCID female mice in a volume of 0.1 ml. Tumour burden (determined by Xenogen IVIS imaging), body weight and health condition were recorded twice weekly for the duration of the study. For Xenogen imaging, mice received an intraperitoneal administration of 150 mg/kg D- Luciferin 10 to 15 minutes prior to imaging. Imaging was performed under isoflurane anaesthesia and data analyzed using Living Image software (Xenogen). Statistical significance was evaluated using non-parametric, unpaired, two-tailed t-test.

[2] = Tumour pharmacokinetics (released and total AZD4320) in RS4;11 tumours; assay type: in vivo, C.B-17 SCID mouse; conditions: for Concentration of Released AZD4320 in Tumour, Mean / Concentration of Released AZD4320 in Tumour, individual samples (Fig 5g/5h) / Concentrations of Total AZD4320 in Tumour, individual samples: 10 mg/kg AZD4320 equivalent; for Concentration of Released AZD4320 in Tumour, individual samples (Fig 5g/5h) / Concentrations of Total AZD4320 in Tumour, individual samples / Concentration of total AZD4320 in tumour: listed as SPL-8977; for Mean concentration of total AZD4320 in tumour / Concentration of total AZD4320 in tumour: tumour tissue; for Mean concentration of total AZD4320 in tumour: mean of 3 samples
From the text: For tumour measurements, tumours were harvested, split into smaller pieces and snap frozen in liquid nitrogen. Frozen tumour samples were subsequently weighed and then homogenised for both ‘released’ and ‘total’ AZD4320. For ‘released’ AZD4320, samples were homogenised on ice with an equal volume (w/v) of blank plasma containing 0.2 M citric acid. The samples were then processed according to the aforementioned plasma approach. For ‘total’ AZD4320, samples were homogenised with an equal volume of plasma (w/v) and then processed according to the aforementioned ‘total’ approach.
Sample analyses were performed in batches containing study samples, calibration standards at 10 concentration levels, QC samples at three concentration levels in duplicate and blank samples. The analytical run acceptance criteria for calibration standards and QC samples was that at least 75% of back-calculated concentrations for calibration standards and at least 2/3 of the QC samples (at least 50% at each concentration level) should be within ±20% (±25% at LLOQ) from nominal value.
Female C.B.−17 SCID mice were purchased from Charles River Laboratories. Mice were 5–8 weeks old at the time of tumour implantation. All xenograft studies were conducted at our Association for the Assessment and Accreditation of Laboratory Animal Care accredited facility in Waltham, MA in accordance with ethical regulations described in the guidelines established by the internal Institutional Animal Care and Use Committee. The dendrimer conjugates were formulated in citrate/phosphate buffer pH 5.0, diluted 1:10 with 5% glucose containing 1% w/v Kolliphor HS15, and AZD4320 was formulated in 30% HP-β-CD and dosed as a weekly intravenous (IV) administration at a volume of 5 ml/kg at the indicated doses. Five million RS4;11, five million SUDHL-4 or five million OCI-LY-10 cells were injected subcutaneously in the right flank of mice in a volume of 0.1 ml. Tumour volumes (measured by caliper), animal body weight, and tumor condition were recorded twice weekly for the duration of the study. The tumour volume was calculated (taking length to be the longest diameter across the tumour and width to be the corresponding perpendicular diameter) using the formula: length (mm) x width (mm)^2/0.52. For efficacy studies, mice were randomized based on tumour volumes using stratified sampling and enrolled into control and treatment groups. Tumour growth inhibition from the start of treatment was quantified by measuring the difference in tumour volume between control and treated groups. Survival analysis was evaluated using Mantel-Cox test. Tumours were also taken for bioanalysis.

[3] = RS4;11, single dose AZD0466 34 mg/kg, 3 h, 34 mg/kg
[4] = RS4;11, single dose AZD0466 34 mg/kg, 8 h, 34 mg/kg
[5] = RS4;11, single dose AZD0466 34 mg/kg, 24 h, 34 mg/kg
[6] = RS4;11, single dose AZD0466 34 mg/kg, 48 h, 34 mg/kg
[7] = RS4;11, single dose AZD0466 34 mg/kg, 72 h, 34 mg/kg
[8] = RS4;11, single dose AZD0466 103 mg/kg, 3 h, 103 mg/kg
[9] = RS4;11, single dose AZD0466 103 mg/kg, 8 h, 103 mg/kg
[10] = RS4;11, single dose AZD0466 103 mg/kg, 24 h, 103 mg/kg
[11] = RS4;11, single dose AZD0466 103 mg/kg, 48 h, 103 mg/kg
[12] = RS4;11, single dose AZD0466 103 mg/kg, 72 h, 103 mg/kg

AZD4320-MIDA-PEG2100 [AZD0466]
Raw bioluminescence counts in individual animals ([1]; AZD0466 34 mg/kg (10mg/kg AZD4320), day 1): 1011000 counts and 1455000 counts and 962000 counts and 1223000 counts and 856300 counts | Raw bioluminescence counts in individual animals ([1]; AZD0466 34 mg/kg (10mg/kg AZD4320), day 4): 1131000 counts and 1477000 counts and 863000 counts and 1453000 counts and 1099000 counts | Raw bioluminescence counts in individual animals ([1]; AZD0466 34 mg/kg (10mg/kg AZD4320), day 8): 2077000 counts and 2641000 counts and 963600 counts and 3688000 counts and 1848000 counts | Raw bioluminescence counts in individual animals ([1]; AZD0466 34 mg/kg (10mg/kg AZD4320), day 11): 2663000 counts and 3475000 counts and 794700 counts and 3942000 counts and 2369000 counts | Raw bioluminescence counts in individual animals ([1]; AZD0466 34 mg/kg (10mg/kg AZD4320), day 15): 3909000 counts and 5355000 counts and 1268000 counts and 8178000 counts and 3745000 counts | Raw bioluminescence counts in individual animals ([1]; AZD0466 103 mg/kg (30mg/kg AZD4320), day 1): 1023000 counts and 885100 counts and 876200 counts and 2011000 counts and 1243000 counts | Raw bioluminescence counts in individual animals ([1]; AZD0466 103 mg/kg (30mg/kg AZD4320), day 4): 712200 counts and 758000 counts and 861600 counts and 963300 counts and 1088000 counts | Raw bioluminescence counts in individual animals ([1]; AZD0466 103 mg/kg (30mg/kg AZD4320), day 8): 888700 counts and 911000 counts and 1080000 counts and 921400 counts and 1303000 counts | Raw bioluminescence counts in individual animals ([1]; AZD0466 103 mg/kg (30mg/kg AZD4320), day 11): 687900 counts and 678400 counts and 868400 counts and 651900 counts and 817800 counts | Raw bioluminescence counts in individual animals ([1]; AZD0466 103 mg/kg (30mg/kg AZD4320), day 15): 1023000 counts and 956600 counts and 1075000 counts and 787100 counts and 1030000 counts | Raw bioluminescence counts in individual animals ([1]; AZD0466 340 mg/kg (100mg/kg AZD4320), day 1): 851500 counts and 1286000 counts and 895800 counts and 1120000 counts and 1558000 counts | Raw bioluminescence counts in individual animals ([1]; AZD0466 340 mg/kg (100mg/kg AZD4320), day 4): 675300 counts and 732000 counts and 775100 counts and 773400 counts and 665700 counts | Raw bioluminescence counts in individual animals ([1]; AZD0466 340 mg/kg (100mg/kg AZD4320), day 8): 696900 counts and 758300 counts and 613100 counts and 757700 counts and 754200 counts | Raw bioluminescence counts in individual animals ([1]; AZD0466 340 mg/kg (100mg/kg AZD4320), day 11): 628500 counts and 817700 counts and 761500 counts and 744200 counts and 883400 counts | Raw bioluminescence counts in individual animals ([1]; AZD0466 340 mg/kg (100mg/kg AZD4320), day 15): 1033000 counts and 1121000 counts and 987400 counts and 873700 counts and 861800 counts | anti-tumour activity ([1]; disseminated Ri-1, once weekly IV): dose-dependent anti-tumour activity | Concentration of Released AZD4320 in Tumour, Mean ([2]; 1 hr): 8.1 ng/mL | Concentration of Released AZD4320 in Tumour, individual samples (Fig 5g/5h) ([2]; 1 hr): 8.2 ng/mL and 11.2 ng/mL and 4.7 ng/mL | Concentration of Released AZD4320 in Tumour, Mean ([2]; 3 hr): 15.1 ng/mL | Concentration of Released AZD4320 in Tumour, individual samples (Fig 5g/5h) ([2]; 3 hr): 16 ng/mL and 18.8 ng/mL and 10.4 ng/mL | Concentration of Released AZD4320 in Tumour, Mean ([2]; 9 hr): 109 ng/mL | Concentration of Released AZD4320 in Tumour, individual samples (Fig 5g/5h) ([2]; 9 hr): 178.8 ng/mL and 71.4 ng/mL and 78 ng/mL | Concentrations of Total AZD4320 in Tumour, individual samples ([2]; 9 hr): 1886 ng/mL and 831 ng/mL and 866 ng/mL | Concentration of Released AZD4320 in Tumour, Mean ([2]; 20 hr): 244 ng/mL | Concentration of Released AZD4320 in Tumour, individual samples (Fig 5g/5h) ([2]; 20 hr): 214.9 ng/mL and 250.1 ng/mL and 267.9 ng/mL | Concentration of Released AZD4320 in Tumour, Mean ([2]; 48 hr): 389 ng/mL | Concentration of Released AZD4320 in Tumour, individual samples (Fig 5g/5h) ([2]; 48 hr): 493.9 ng/mL and 123.4 ng/mL and 550.2 ng/mL | Concentrations of Total AZD4320 in Tumour, individual samples ([2]; 48 hr): 1152 ng/mL and 319 ng/mL and 1257 ng/mL | Concentration of Released AZD4320 in Tumour, Mean ([2]; 72 hr): 462 ng/mL | Concentration of Released AZD4320 in Tumour, individual samples (Fig 5g/5h) ([2]; 72 hr): 290.2 ng/mL and 611.5 ng/mL and 485 ng/mL | Tumor PK Released AZD4320, individual tumours [2, 3]: 16 ng/g and 18.8 ng/g and 10.4 ng/g | Tumor PK Total AZD4320, individual tumours [2, 3]: 621 ng/g and 697 ng/g and 376 ng/g | Tumor PK Released AZD4320, individual tumours [2, 4]: 179 ng/g and 71.4 ng/g and 78 ng/g | Tumor PK Total AZD4320, individual tumours [2, 4]: 1886 ng/g and 831 ng/g and 866 ng/g | Tumor PK Released AZD4320, individual tumours [2, 5]: 215 ng/g and 250 ng/g and 268 ng/g | Tumor PK Total AZD4320, individual tumours [2, 5]: 926 ng/g and 923 ng/g and 1118 ng/g | Tumor PK Released AZD4320, individual tumours [2, 6]: 494 ng/g and 123 ng/g and 550 ng/g | Tumor PK Total AZD4320, individual tumours [2, 6]: 1152 ng/g and 319 ng/g and 1257 ng/g | Tumor PK Released AZD4320, individual tumours [2, 7]: 290 ng/g and 612 ng/g and 485 ng/g | Tumor PK Total AZD4320, individual tumours [2, 7]: 536 ng/g and 983 ng/g and 719 ng/g | Tumor PK Released AZD4320, individual tumours [2, 8]: 227 ng/g and 79 ng/g and 90 ng/g | Tumor PK Total AZD4320, individual tumours [2, 8]: 5852 ng/g and 2518 ng/g and 2703 ng/g | Tumor PK Released AZD4320, individual tumours [2, 9]: 1407 ng/g and 1218 ng/g and 972 ng/g | Tumor PK Total AZD4320, individual tumours [2, 9]: 14358 ng/g and 9822 ng/g and 9418 ng/g | Tumor PK Released AZD4320, individual tumours [2, 10]: 1730 ng/g and 1595 ng/g and 1484 ng/g | Tumor PK Total AZD4320, individual tumours [2, 10]: 4335 ng/g and 4133 ng/g and 3920 ng/g | Tumor PK Released AZD4320, individual tumours [2, 11]: 3581 ng/g and 4025 ng/g and 5214 ng/g | Tumor PK Total AZD4320, individual tumours [2, 11]: 6225 ng/g and 5604 ng/g and 9523 ng/g | Tumor PK Released AZD4320, individual tumours [2, 12]: 3295 ng/g and 5783 ng/g and 7049 ng/g | Tumor PK Total AZD4320, individual tumours [2, 12]: 6132 ng/g and 7039 ng/g and 8246 ng/g | Mean concentration of total AZD4320 in tumour ([2]; 1 hr): 536 ng/mL | Concentration of total AZD4320 in tumour ([2]; 1 hr): 553 ng/mL and 665 ng/mL and 390 ng/mL | Mean concentration of total AZD4320 in tumour ([2]; 3 hr): 565 ng/mL | Concentration of total AZD4320 in tumour ([2]; 3 hr): 621 ng/mL and 697 ng/mL and 376 ng/mL | Mean concentration of total AZD4320 in tumour ([2]; 9 hr): 1194 ng/mL | Mean concentration of total AZD4320 in tumour ([2]; 20 hr): 989 ng/mL | Concentration of total AZD4320 in tumour ([2]; 20 hr): 926 ng/mL and 923 ng/mL and 1118 ng/mL | Mean concentration of total AZD4320 in tumour ([2]; 48 hr): 909 ng/mL | Mean concentration of total AZD4320 in tumour ([2]; 72 hr): 746 ng/mL | Concentration of total AZD4320 in tumour ([2]; 72 hr): 536 ng/mL and 983 ng/mL and 719 ng/mL
